Data as given in patent US20250059241A1 (SYNGENTA CROP PROTECTION, published 2025).

Tests used:
[1] = target: SMALP-Sf-ABCC2-FLAG (Sf-ABCC2 extracted from silkworm pupae membranes with styrene maleic acid and affinity purified) (Spodoptera frugiperda); experiment: immuno-magnetic separation with SMALP-Sf-ABCC2 and anti-FLAG magnetic beads; colonies on LB-tet
[2] = target: T1, Spore-Cry1Aa (Bacillus subtilis spores displaying the Bacillus thuringiensis Cry1Aa protein as a … (Bacillus thuringiensis, UniProt P0A366 1-621)); experiment: flow cytometry of spores labelled with Bm-ABCC2, anti-FLAG mouse antibody and Alexa-labelled anti-mouse IgG, after a wash with 0.2% SDS
T1 construct: vector pSB634 or pHY300PLK

[3] = target: T2, Spore-Cry1Fa (Bacillus subtilis spores displaying the Bacillus thuringiensis Cry1Fa protein as a … (Bacillus thuringiensis, UniProt Q03746 1-615)); experiment: microscopy of spores on Sf9 cells expressing Sf-ABCC2
T2 construct: vector pSB634 or pHY300PLK
T2 sequence: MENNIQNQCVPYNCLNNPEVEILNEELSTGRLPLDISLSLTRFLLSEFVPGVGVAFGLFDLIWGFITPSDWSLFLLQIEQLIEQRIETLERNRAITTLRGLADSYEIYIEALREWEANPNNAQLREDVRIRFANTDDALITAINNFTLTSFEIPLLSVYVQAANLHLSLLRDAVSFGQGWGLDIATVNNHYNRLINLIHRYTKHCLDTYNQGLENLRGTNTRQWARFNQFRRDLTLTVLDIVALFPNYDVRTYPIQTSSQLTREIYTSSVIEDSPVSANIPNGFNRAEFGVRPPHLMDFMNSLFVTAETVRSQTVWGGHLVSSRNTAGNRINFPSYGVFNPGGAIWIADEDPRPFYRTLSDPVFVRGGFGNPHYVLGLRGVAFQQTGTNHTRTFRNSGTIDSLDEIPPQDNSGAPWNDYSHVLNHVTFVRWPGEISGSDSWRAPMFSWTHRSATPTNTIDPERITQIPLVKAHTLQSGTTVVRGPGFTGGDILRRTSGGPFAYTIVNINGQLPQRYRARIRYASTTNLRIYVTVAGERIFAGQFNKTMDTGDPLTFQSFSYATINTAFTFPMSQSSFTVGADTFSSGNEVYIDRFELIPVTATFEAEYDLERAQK

[4] = target: T2, Spore-Cry1Fa (Bacillus subtilis spores …); experiment: immuno-magnetic separation with anti-FLAG magnetic beads

How did the spores (colonies) pulled out by the magnetic beads from 10^6 spores (spores (colonies)) [1] turn out when “Spore-pSB634 (Bacillus subtilis spores carrying the empty vector pSB634, no Cry protein displayed)” was run?
Its spores (colonies) pulled out by the magnetic beads from 10^6 spores (spores (colonies)) is 9.

B1: Bm-ABCC2 solubilized in 1% Triton X100 and affinity purified (C-terminal FLAG tag) (receptor)
chain: MNSDGRAGENSSAETRRKPHKPNILSRIFLWWMCPVLVKGNQRDTVEDDLIIPKKSFNSENQGEYLERYWLQEYEAAIKEKREPSLWTALRKAYWLGYMPGAIYLIIISVFRIIQPLVFAELLSYWSVEATITRLEASYYALALLGINFINMMCQHHNSLFVARFGLKVKVACSSLVYRKLLRMDQVALGDVSGGKLVNLLSNDVARFDYAFMFLHYLWVVPVQAAVVLYFLYISAGYAPFVGFFGVVILILPIQAGLTKLTSVVRRETAQRTDRRIKLMTEIINGIQVIKMYAWEKPFQAIVKVARNFEMIALRKSIFIRSVFLGFMLFTERSIIFITCLTFLLTGNLVTATLIYPIQQYISIIQINLTMILPLAIASLSEMLVSLERIQNFLVKDEREDVQITPKSYGDDNRLIFNNKASLGPQNEIIPKKYLATDGQLASTLTNEPVLSTDPAVCDYPIELSKVDATWSSSTDTSEMTLRNITLRIGRGKLCAIIGPVGSGKSSILQVLLKELPVCGGSLRINGRLSYACQESWLFPATVRENILFGLPYDSQKYHEVCKACSLLPDFKQFPYGDLSLVGERGVSLSGGQRARINLARAVYREADIYLLDDPLSAVDANVGRQLFDGCIKGYLRGRTCVLVTHQIHYLKAADIIVILNEGAIENVGSYDDLVNTGTEFSKLLTNQESNDNENGPEKNFLRAISKISTKSVEDPDNEKVQVEEEEKRAKGNLKFSVLYKYLSAVKSWFLVFLMVVTLVITQGCATFIDYWLSFWTNQVDEYEQSLAEGEEPSTSLDTQAGAFTLGVYLWTYGGVILILIVISHVRILTFVITTMRASSNFHDTVYKKLIITVMRFFDMNPSGRVLNRFSKDMGAMDEFLPRSLFETVQMYLTLCSILILNAIALPWTLIPTAVLLILFFVLLKWYLNAAQAVKRLEGTTKSPVLGMINSTLTGLSTIRSSNSQGRLLQMFDNAQNLHTSAFYTFVGGSTAFGLYLDALCLVYLGVILTIFLVIDFSTLIPVGSVGLAVSQSMVLTMMLQMAARFTADFLGQMTAVERVLEYTELPMEENMYDGSQLPKDWPTHGRIEFQNLFLNYSQEDPPVLKDLNFVIENGWKVGVVGRTGAGKSSMISALFRLYELQGHIRIDGIDTNIIAKTELRSKISIIPQEPILFSASVRYNLDPFDSYSDDEIWRALEQVELKEVIPALDYKVSEGGSNFSVGQRQLVCLARAVLRSNKILVMDEATANVDPQTDALIQTTIRREFASCTVITIAHRLNTIMDSDRVLVMDKGVVAEYDTPYALLSDPNSIFSSMVRETGDTMSKVLFRVAEDKHLGRNTEKDYKDDDDK
Does B1 bind [2]?
Result: binds

B2: Sf-ABCC2 (Spodoptera frugiperda ABC transporter subfamily C type 2, C-terminal FLAG tag) expressed on Sf9 cells (receptor)
chain: MDKSNKNTAANGNGGQRAGEPKKRVRKKPNILSRIFVWWIFPVLITGNKRDVEEDDLIVPSKKFNSERQGEYFERYWFEEVAIAEREDRDPSLWKAMRRAYWLQYMPGAIFVLLISGLRTAQPLLFSQLLSYWSVDSEMSQQDAGLYALAMLGINFITMMCTHHNNLFVMRFSMKVKIAASSLLFRKLLRMSQVSVGDVAGGKLVNLLSNDVARFDYAFMFLHYLWVVPLQVGVVLYFVYDAAGWAPYVGLFGVIILIMPLQAGLTKLTGVVRRMTAKRTDKRIKLMSEIINGIQVIKMYAWEKPFQLVVKAARAYEMSALRKSIFIRSMFLGFMLFTERSVMFLTVLTLALTGNMISATLIYPIQQYFGIITMNVTLILPMAFASFSEMLISLERIQGFLLLDERSDIQITPKVVNGAGSKLFNNSKKEGGLETGIVLPTKYSPTEASIARPVQDEPNMADYPVQLNKVNATWADLNDNKEMTLKNISLRVRKNKLCAVIGPVGSGKTSLLQLLLRELPVTSGNLSISGTVSYASQEPWLFPATVRENILFGLEYNVAKYKEVCKVCSLLPDFKQFPYGDLSLVGERGVSLSGGQRARINLARAVYREADIYLLDDPLSAVDANVGRQLFDGCIKGYLSGKTCILVTHQIHYLKAADFIVVLNEGSVENMGSYDELMKTGTEFSMLLSDQASEGSDTDKKERPAMMQGISKMSVKSDDEEGEEKVQVLEAEERQSGSLKWDVLGRYMKSVNSWCMVVMAFLVLVITQGAATTTDYWLSFWTNQVDGYIQTLPEGESPNPELDTQVGLLTTGQYLIVHGSVVLAIIILTQVRILSFVVMTMRASENLHNTIYEKLIVAVMRFFDTNPSGRVLNRFSKDMGAMDELLPRSMLETVQMYLSLASVLVLNAIALPWTLIPTTVLMFIFVFLLKWYINAAQAVKRLEGTTKSPVFGMINSTISGLSTIRSSNSQDRLLNSFDDAQNLHTSAFYTFLGGSTAFGLYLDTLCLIYLGIIMSIFILGDFGELIPVGSVGLAVSQSMVLTMMLQMAAKFTADFLGQMTAVERVLEYTKLPTEENMETGPTTPPKGWPSAGEVTFSNVYLKYSPDDPPVLKDLNFAIKSGWKVGVVGRTGAGKSSLISALFRLSDITGSIKIDGLDTQGIAKKLLRSKISIIPQEPVLFSASLRYNLDPFDNYNDEDIWRALEQVELKESIPALDYKVSEGGTNFSMGQRQLVCLARAILRSNKILIMDEATANVDPQTDALIQKTIRKQFANCTVLTIAHRLNTIMDSDRVLVMDQGVAAEFDHPYILLSNPNSKFSSMVKETGDNMSRILFEVAKTKYESDSKTADYKDDDDK
notes: Expressed in Sf9 cells by baculovirus together with EGFP; also called Sf9::Sf-ABCC2; Sf9 expressing Sf-ABCC2
Does B2 bind [3]?
Result: binds

B3: SMALP-Sf-ABCC2-FLAG (Sf-ABCC2 extracted from silkworm pupae membranes with styrene maleic acid and affinity purified) (receptor)
chain: MDKSNKNTAANGNGGQRAGEPKKRVRKKPNILSRIFVWWIFPVLITGNKRDVEEDDLIVPSKKFNSERQGEYFERYWFEEVAIAEREDRDPSLWKAMRRAYWLQYMPGAIFVLLISGLRTAQPLLFSQLLSYWSVDSEMSQQDAGLYALAMLGINFITMMCTHHNNLFVMRFSMKVKIAASSLLFRKLLRMSQVSVGDVAGGKLVNLLSNDVARFDYAFMFLHYLWVVPLQVGVVLYFVYDAAGWAPYVGLFGVIILIMPLQAGLTKLTGVVRRMTAKRTDKRIKLMSEIINGIQVIKMYAWEKPFQLVVKAARAYEMSALRKSIFIRSMFLGFMLFTERSVMFLTVLTLALTGNMISATLIYPIQQYFGIITMNVTLILPMAFASFSEMLISLERIQGFLLLDERSDIQITPKVVNGAGSKLFNNSKKEGGLETGIVLPTKYSPTEASIARPVQDEPNMADYPVQLNKVNATWADLNDNKEMTLKNISLRVRKNKLCAVIGPVGSGKTSLLQLLLRELPVTSGNLSISGTVSYASQEPWLFPATVRENILFGLEYNVAKYKEVCKVCSLLPDFKQFPYGDLSLVGERGVSLSGGQRARINLARAVYREADIYLLDDPLSAVDANVGRQLFDGCIKGYLSGKTCILVTHQIHYLKAADFIVVLNEGSVENMGSYDELMKTGTEFSMLLSDQASEGSDTDKKERPAMMQGISKMSVKSDDEEGEEKVQVLEAEERQSGSLKWDVLGRYMKSVNSWCMVVMAFLVLVITQGAATTTDYWLSFWTNQVDGYIQTLPEGESPNPELDTQVGLLTTGQYLIVHGSVVLAIIILTQVRILSFVVMTMRASENLHNTIYEKLIVAVMRFFDTNPSGRVLNRFSKDMGAMDELLPRSMLETVQMYLSLASVLVLNAIALPWTLIPTTVLMFIFVFLLKWYINAAQAVKRLEGTTKSPVFGMINSTISGLSTIRSSNSQDRLLNSFDDAQNLHTSAFYTFLGGSTAFGLYLDTLCLIYLGIIMSIFILGDFGELIPVGSVGLAVSQSMVLTMMLQMAAKFTADFLGQMTAVERVLEYTKLPTEENMETGPTTPPKGWPSAGEVTFSNVYLKYSPDDPPVLKDLNFAIKSGWKVGVVGRTGAGKSSLISALFRLSDITGSIKIDGLDTQGIAKKLLRSKISIIPQEPVLFSASLRYNLDPFDNYNDEDIWRALEQVELKESIPALDYKVSEGGTNFSMGQRQLVCLARAILRSNKILIMDEATANVDPQTDALIQKTIRKQFANCTVLTIAHRLNTIMDSDRVLVMDQGVAAEFDHPYILLSNPNSKFSSMVKETGDNMSRILFEVAKTKYESDSKTADYKDDDDK
notes: also called Sf-ABCC2 in SMALP
Does B3 bind [4]?
Result: binds
